Reference: PMC3787792

Assays:
Assay in all cases: SEC + other: SDS-PAGE
[1] = target: IgG1-Fc variant K392R (soluble) (human)
[2] = target: IgG1-Fc variant S424T (soluble) (human)
[3] = target: IgG1-Fc variant T437I (soluble) (human)
[4] = target: IgG1-Fc variant Q418L (soluble) (human)
[5] = target: IgG1-Fc variant S354P (soluble) (human)
[6] = target: IgG1-Fc variant Q347E (soluble) (human)
[7] = target: IgG1-Fc variant K360Q (soluble) (human)
[8] = target: IgG1-Fc variant N421D (soluble) (human)
[9] = target: IgG1-Fc variant Q438R (soluble) (human)
[10] = target: IgG1-Fc variant S400F (soluble) (human)
[11] = target: IgG1-Fc variant K360E (soluble) (human)
[12] = target: IgG1-Fc variant Q438K (soluble) (human)

IgG1-Fc variant K392R (soluble) (domain or fragment)
stoichiometry N [1]: 2

IgG1-Fc variant S424T (soluble) (domain or fragment)
stoichiometry N [2]: 2

IgG1-Fc variant T437I (soluble) (domain or fragment)
stoichiometry N [3]: 2

IgG1-Fc variant Q418L (soluble) (domain or fragment)
stoichiometry N [4]: 2

IgG1-Fc variant S354P (soluble) (domain or fragment)
stoichiometry N [5]: 2

IgG1-Fc variant Q347E (soluble) (domain or fragment)
stoichiometry N [6]: 2

IgG1-Fc variant K360Q (soluble) (domain or fragment)
stoichiometry N [7]: 2

IgG1-Fc variant N421D (soluble) (domain or fragment)
stoichiometry N [8]: 2

IgG1-Fc variant Q438R (soluble) (domain or fragment)
stoichiometry N [9]: 2

IgG1-Fc variant S400F (soluble) (domain or fragment)
stoichiometry N [10]: 2

IgG1-Fc variant K360E (soluble) (domain or fragment)
stoichiometry N [11]: 2

IgG1-Fc variant Q438K (soluble) (domain or fragment)
stoichiometry N [12]: 2
